Data: PMC7473305 (Frontiers in Immunology, 2020)

Legend:
[1] = target: T1, cynomolgus macaque IL-17F (Macaca fascicularis, UniProt G7P4V0); assay: SPR; Biacore T200, CM5 chip; IgG1 captured by F(ab')2 fragment-specific or Fcγ-specific goat anti-human IgG F(ab')2; cytokine titrated over it (10 nM IL-17F or 5 nM IL-17A and IL-17A/F downwards); HBS-EP pH 7.4, 25°C; settings: both partners purified
T1 construct: interleukin-17F, cynomolgus macaque; source: generated at UCB

[2] = target: T2, cynomolgus macaque IL-17A (Macaca fascicularis, UniProt A0A2K5TTB0); assay: as above; settings: both partners purified
T2 construct: interleukin-17A, cynomolgus macaque; source: generated at UCB

[3] = target: T3, human IL-17F (R&D Systems) (Homo sapiens, UniProt Q96PD4); assay: cell-based or functional assay
T3 sequence (Q96PD4 31-163): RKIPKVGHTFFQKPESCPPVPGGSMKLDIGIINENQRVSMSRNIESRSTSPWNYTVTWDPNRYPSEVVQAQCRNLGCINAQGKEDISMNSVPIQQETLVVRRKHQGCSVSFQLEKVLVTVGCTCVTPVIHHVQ

[4] = target: T4, human IL-17A (generated at UCB) (Homo sapiens, UniProt Q16552); assay: cell-based or functional assay
T4 sequence (Q16552 24-155): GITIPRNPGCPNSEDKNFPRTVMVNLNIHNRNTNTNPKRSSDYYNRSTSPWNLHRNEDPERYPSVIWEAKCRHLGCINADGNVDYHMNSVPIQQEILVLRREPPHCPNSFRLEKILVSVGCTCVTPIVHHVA

[5] = target: human IL-17A/F heterodimer (Homo sapiens, UniProt Q16552;Q96PD4); assay: cell-based or functional assay
Chain of human IL-17A/F heterodimer (Q16552 24-155, chain 1 of 2): as the sequence (Q16552 24-155) above
Chain of human IL-17A/F heterodimer (Q96PD4 31-163, chain 2 of 2): as the sequence (Q96PD4 31-163) above

[6] = target: T3, human IL-17F (R&D Systems); assay: SPR; Biacore T200, CM5 chip; Fab captured on immobilised anti-human F(ab')2; cytokine titrated over it; HBS-EP pH 7.4, 25°C; settings: both partners purified
[7] = target: T4, human IL-17A (generated at UCB); assay: as above; settings: both partners purified

Row | Binder | Kd [1] [pM] | Kd [2] [pM] | IC50 of neutralization of IL-17F (30 ng/mL, with TNF 1 ng/mL): IL-6 production by NHDFs [3] [µg/mL] | IC50 of neutralization of IL-17A (1 ng/mL, with TNF 1 ng/mL): IL-6 production by NHDFs [4] [µg/mL] | IC50 of neutralization of IL-17A/F (30 ng/mL, with TNF 1 ng/mL): IL-6 production by NHDFs [5] [µg/mL] | Kd [6] [pM] | Kd [7] [pM]
1 | 496.g3 IgG1 (bimekizumab) (antibody, V domains shown) VH: EVQLVESGGGLVQPGGSLRLSCAASGFTFSDYNMAWVRQAPGKGLEWVATITYEGRNTYYRDSVKGRFTISRDNAKNSLYLQMNSLRAEDTAVYYCASPPQYYEGSIYRLWFAHWGQGTLVTVSS VL: AIQLTQSPSSLSASVGDRVTITCRADESVRTLMHWYQQKPGKAPKLLIYLVSNSEIGVPDRFSGSGSGTDFRLTISSLQPEDFATYYCQQTWSDPWTFGQGTKVEIK | 345 | 12.3 | 0.0321 | 0.0004 | 0.0489 | – | –
2 | 496.g1 Fab (Fab, V domains shown) VH: EVQLVESGGGLVQPGGSLRLSCAASGFTFSDYNMAWVRQAPGKGLEWVATITYEGRNTYYRDSVKGRFTISRDNAKNSLYLQMNSLRAEDTAVYYCASPPQYYEGSIYRLWFAHWGQGTLVTVSS VL: AIQLTQSPSSLSASVGDRVTITCRADESVTTLMHWYQQKPGKAPKLLIYLVSNRESGVPSRFSGSGSGTDFTLTISSLQPEDFATYYCQQTWSDPWTFGQGTKVEIK | – | – | – | – | – | 1510 | 29.2
3 | 496.g3 Fab (Fab, V domains shown) VH: EVQLVESGGGLVQPGGSLRLSCAASGFTFSDYNMAWVRQAPGKGLEWVATITYEGRNTYYRDSVKGRFTISRDNAKNSLYLQMNSLRAEDTAVYYCASPPQYYEGSIYRLWFAHWGQGTLVTVSS VL: AIQLTQSPSSLSASVGDRVTITCRADESVRTLMHWYQQKPGKAPKLLIYLVSNSEIGVPDRFSGSGSGTDFRLTISSLQPEDFATYYCQQTWSDPWTFGQGTKVEIK | – | – | – | – | – | – | 7.2
